In patent publication US20030027303A1:

What was measured:
Assay in all cases: cell-based or functional assay
[1] = biological target: gut proteases of P. opercullela (crude gut extract) (Phthorimaea opercullela)
[2] = biological target: gut proteases of S. litura (crude gut extract) (Spodoptera litura)
[3] = biological target: gut proteases of C. obliquana (crude gut extract) (Ctenopseustis obliquana)
[4] = biological target: gut proteases of C. rufifacies (crude gut extract) (Chrysomya rufifacies)
[5] = biological target: gut proteases of A. tasmaniae (crude gut extract) (Aphodius tasmaniae)
[6] = biological target: gut proteases of P. octo (crude gut extract) (Planotortrix octo)
[7] = biological target: gut proteases of E. postvitiana (crude gut extract) (Epiphyas postvittana)
[8] = biological target: gut proteases of H. armigera (crude gut extract) (Helicoverpa armigera)
[9] = biological target: gut proteases of C. zealandica (crude gut extract) (Costelytra zealandica)
[10] = biological target: gut proteases of T. commodus (crude gut extract) (Teleogryllus commodus)
[11] = biological target: gut proteases of W. cervinata (crude gut extract) (Wiseana cervinata)
[12] = biological target: gut proteases of H. punctigera (crude gut extract) (Helicoverpa punctigera)
[13] = biological target: gut proteases of L. serricata (crude gut extract) (Lucilla sericata)
[14] = biological target: gut proteases of sugar cane grub (crude gut extract)
[15] = biological target: gut proteases of A. infusa (crude gut extract) (Agrotis infusa)

B1: C1, N. alata chymotrypsin inhibitor (peak 1 from HPLC) (peptide)
peptide: DRICTNCCAGTKGCKYFSDDGTFVCEGESDPRNPKACTLNCDPRIAYGVCPRS
B1 gave a casein hydrolysis (% control) [1] of 100 % control, a casein hydrolysis (% control) [2] of 33.6 % control and a casein hydrolysis (% control) [3] of 49.1 % control. For the same binder, the casein hydrolysis (% control) [4] was 37.8 % control, the casein hydrolysis (% control) [5] was 34.2 % control and the casein hydrolysis (% control) [6] was 67.2 % control. The casein hydrolysis (% control) [7] was 45.4 % control, the casein hydrolysis (% control) [8] was 32.7 % control and the casein hydrolysis (% control) [9] was 54.7 % control. It also gave a casein hydrolysis (% control) [10] of 35 % control, a casein hydrolysis (% control) [11] of 82.9 % control and a casein hydrolysis (% control) [12] of 29.3 % control. It also gave a casein hydrolysis (% control) [13] of 100 % control, a casein hydrolysis (% control) [14] of 43.9 % control and a casein hydrolysis (% control) [15] of 40.2 % control.
